# Test results from doi:10.1101/2023.02.07.527441.
# Target: PmScsC-EcDsbA chimera (Proteus mirabilis | E. coli) (UniProt P0AEG4)
# Experiment: AUC
substance,measurement,value
PmScsC-EcDsbA chimera (from UniProt P0AEG4 20-208) (enzyme),stoichiometry N,3
